Experiments:
[1] = biological target: T1, Tel protelomerase (bacteriophage PY54) (UniProt Q8W5V1); experiment: cell_activity; conditions: SS- integrant at lambda attB, 42 C; no processing of SS- plasmid
T1 sequence: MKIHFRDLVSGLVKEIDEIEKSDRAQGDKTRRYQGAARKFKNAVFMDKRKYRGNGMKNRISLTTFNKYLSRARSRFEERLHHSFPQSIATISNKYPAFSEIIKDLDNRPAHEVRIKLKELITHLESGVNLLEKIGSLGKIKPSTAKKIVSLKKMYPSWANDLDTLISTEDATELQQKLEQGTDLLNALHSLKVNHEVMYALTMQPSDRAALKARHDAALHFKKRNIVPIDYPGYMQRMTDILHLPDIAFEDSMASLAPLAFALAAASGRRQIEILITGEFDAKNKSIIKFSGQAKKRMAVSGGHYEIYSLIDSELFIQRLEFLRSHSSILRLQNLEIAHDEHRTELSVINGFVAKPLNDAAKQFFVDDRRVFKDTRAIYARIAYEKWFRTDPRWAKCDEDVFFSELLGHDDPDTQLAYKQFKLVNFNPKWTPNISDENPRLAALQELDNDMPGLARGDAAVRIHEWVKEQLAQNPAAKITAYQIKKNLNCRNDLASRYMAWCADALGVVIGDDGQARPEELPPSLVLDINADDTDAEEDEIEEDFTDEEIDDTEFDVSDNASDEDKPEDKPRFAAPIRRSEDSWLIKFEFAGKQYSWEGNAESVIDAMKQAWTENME

[2] = biological target: T2, TelN protelomerase (bacteriophage N15) (UniProt Q77WP1); experiment: cell_activity; conditions: SS- integrant at lambda attB, 42 C
T2 sequence: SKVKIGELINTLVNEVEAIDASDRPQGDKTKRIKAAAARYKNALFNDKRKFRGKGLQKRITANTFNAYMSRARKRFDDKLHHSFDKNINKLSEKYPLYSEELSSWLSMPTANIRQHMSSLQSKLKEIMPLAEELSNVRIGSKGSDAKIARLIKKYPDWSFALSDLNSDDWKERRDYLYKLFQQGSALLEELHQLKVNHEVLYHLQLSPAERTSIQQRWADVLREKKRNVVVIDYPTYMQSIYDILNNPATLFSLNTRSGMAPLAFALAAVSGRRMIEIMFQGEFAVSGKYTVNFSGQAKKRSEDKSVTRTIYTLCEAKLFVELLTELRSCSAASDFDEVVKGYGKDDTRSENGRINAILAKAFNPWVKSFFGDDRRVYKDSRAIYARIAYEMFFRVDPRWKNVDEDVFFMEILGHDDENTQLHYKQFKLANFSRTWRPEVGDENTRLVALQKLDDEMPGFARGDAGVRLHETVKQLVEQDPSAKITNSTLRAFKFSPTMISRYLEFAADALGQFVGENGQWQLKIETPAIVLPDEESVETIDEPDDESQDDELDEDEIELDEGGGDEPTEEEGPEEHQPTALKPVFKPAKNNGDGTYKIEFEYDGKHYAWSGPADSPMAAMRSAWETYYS

SS-minus plasmid (no target site) showed an activity (fraction viable) [1] of 1 and an activity (fraction viable) [2] of 0.6.

From patent USRE49294
